In US20240010684A1, “MASP INHIBITORY COMPOUNDS AND USES THEREOF” (BAYER AKTIENGESELLSCHAFT, priority 2020, published 2024) one finds human MASP1 IC50 and human MASP2 IC50 data, which are given here for one substance.

Experiment [1] addresses T1, recombinant human MASP1 (amino acids 297-699, C-terminal His Tag) (human) (UniProt P48740).
T1 sequence: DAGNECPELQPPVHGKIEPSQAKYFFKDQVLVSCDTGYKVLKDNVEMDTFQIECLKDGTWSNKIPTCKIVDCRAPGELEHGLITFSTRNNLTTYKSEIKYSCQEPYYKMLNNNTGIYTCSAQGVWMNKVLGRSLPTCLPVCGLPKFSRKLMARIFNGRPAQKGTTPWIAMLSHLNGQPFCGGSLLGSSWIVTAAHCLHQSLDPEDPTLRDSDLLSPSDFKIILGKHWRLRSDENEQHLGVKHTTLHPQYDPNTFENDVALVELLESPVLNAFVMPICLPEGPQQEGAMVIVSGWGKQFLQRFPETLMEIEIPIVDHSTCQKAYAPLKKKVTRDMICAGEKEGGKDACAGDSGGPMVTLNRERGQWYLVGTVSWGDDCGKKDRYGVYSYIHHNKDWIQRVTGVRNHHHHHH
As to the kind of experiment: cell-based or functional assay.

For experiment [2], the target named is recombinant human MASP2 (amino acids 297-686, C-terminal His Tag) (human) (UniProt O00187). As to the kind of experiment: cell-based or functional assay.
Chain of recombinant human MASP2 (amino acids 297-686, C-terminal His Tag) (human) (O00187 other isoform, or with tags, fused parts or gaps limits assumed): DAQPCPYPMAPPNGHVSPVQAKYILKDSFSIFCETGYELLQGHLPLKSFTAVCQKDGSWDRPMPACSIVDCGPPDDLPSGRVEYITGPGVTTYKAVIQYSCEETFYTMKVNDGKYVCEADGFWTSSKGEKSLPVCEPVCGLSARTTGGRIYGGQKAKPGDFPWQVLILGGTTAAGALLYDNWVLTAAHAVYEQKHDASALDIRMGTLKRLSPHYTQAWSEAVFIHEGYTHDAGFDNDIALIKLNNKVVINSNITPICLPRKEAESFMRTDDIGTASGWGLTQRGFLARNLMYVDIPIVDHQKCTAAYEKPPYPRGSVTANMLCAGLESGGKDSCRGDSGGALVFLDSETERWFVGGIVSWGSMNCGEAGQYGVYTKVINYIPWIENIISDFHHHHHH

As to “Example 47: A**GGIC+SRS-((tBu)A)-PPI-((N-Me)C)+-IPd** (peptide)”, the human MASP1 IC50 in experiment [1] came out at 8.2 nM. Further, the human MASP2 IC50 in experiment [2] was 66 nM.
